In publication PMC9859039, “The conserved centrosomin motif, γTuNA, forms a dimer that directly activates microtubule nucleation by the γ-tubulin ring complex (γTuRC)” (eLife, 2022):
One block for each molecule: values may come before it. No end group written: not given here. 3C = human rhinovirus 3C (PreScission) protease cleavage site; TEV = tobacco etch virus protease cleavage site; Strep‑His = not defined here

Tests used:
[1] = molecular target: γ-tubulin ring complex (γTuRC), endogenous Xenopus laevis, P23330;Q5U4M5; experiment: pull-down from Xenopus egg extract, western blot quantification; details: control (beads) bar est. 0.19, read off a plot; for ratio to parent: parent: est. 1.0; for response: scale: normalized band intensity
[2] = molecular target: γ-tubulin ring complex (γTuRC), endogenous Xenopus laevis (Xenopus laevis (endogenous in egg extract)) (UniProt P23330)
[3] = molecular target: γ-tubulin ring complex (γTuRC), endogenous Xenopus laevis (Xenopus laevis (endogenous in egg extract)) (UniProt P23330); remark: listed apart in the source
[4] = molecular target: Strep-His-TEV-HaloTag-3C-Xenopus γTuNA (Xenopus Cdk5rap2 aa 56–101), wildtype (Xenopus laevis); experiment: pull-down; depletion of Xenopus egg extract with Strep-His-Halo-Xenopus γTuNA-coupled beads, a single round; γ-tubulin left in the extract by western blot against mock-treated extract
[5] = molecular target: AU1-human γTuNA (from Strep-His-Halo-3C-AU1-human γTuNA after PreScission cleavage) (human); experiment: co-sedimentation; γTuRC pulled from egg extract on Halo-3C-AU1-human γTuNA beads, eluted by 3C cleavage, 10–50% w/w sucrose gradient (200,000 g, 2 °C, 3 hr); AU1 in the peak γTuRC fraction by western blot against a titration of AU1
[6] = molecular target: Strep-His-TEV-HaloTag-3C-Xenopus γTuNA I67A (Xenopus laevis); experiment: pull-down; Halo-Magne beads coupled to N-terminally Halo-tagged γTuNA baits; 200 µL Xenopus egg extract + 800 µL CSFxB (2% sucrose), 2 hr at 4 °C, washed twice, boiled in SDS sample buffer; western blot of GCP5 and γ-tubulin, band intensities normalised to the wildtype bait
[7] = molecular target: Strep-His-TEV-HaloTag-3C-Xenopus γTuNA L70A (Xenopus laevis); experiment: as above
[8] = molecular target: the molecule itself; experiment: SEC; Superdex 200 increase 10/300 GL, ~50 µM (monomer), CSFxB with 6 mM BME without sucrose, 4 °C, 0.7 mL/min; peak retention volumes compared

Chain of γ-tubulin ring complex (γTuRC), endogenous Xenopus laevis (Xenopus laevis (endogenous in egg extract)) (P23330 whole entry, looked up, the tested form may be a part, one chain of several): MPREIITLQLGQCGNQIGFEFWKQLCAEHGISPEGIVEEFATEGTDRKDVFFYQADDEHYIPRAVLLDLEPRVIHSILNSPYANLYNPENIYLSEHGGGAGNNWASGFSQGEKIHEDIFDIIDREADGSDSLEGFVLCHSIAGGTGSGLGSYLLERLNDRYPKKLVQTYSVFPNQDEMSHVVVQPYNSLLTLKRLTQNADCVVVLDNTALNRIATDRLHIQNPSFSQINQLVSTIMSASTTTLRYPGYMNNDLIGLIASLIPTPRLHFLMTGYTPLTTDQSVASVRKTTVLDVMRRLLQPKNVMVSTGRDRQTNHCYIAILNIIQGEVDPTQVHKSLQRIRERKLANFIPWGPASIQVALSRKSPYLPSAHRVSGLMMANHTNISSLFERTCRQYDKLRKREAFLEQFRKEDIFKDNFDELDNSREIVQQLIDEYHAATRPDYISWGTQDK

- response ([1]; N=2, human wildtype not shown in this panel): 0.16
Molecule: Strep-His-TEV-HaloTag-3C-human γTuNA (human CDK5RAP2 aa 53–98), wildtype I67A; L70A

- ratio to parent ([1]; N=3): 0.1
Molecule: Strep-His-TEV-HaloTag-3C-human γTuNA (human CDK5RAP2 aa 53–98), wildtype I67D; L70D

- ratio to parent ([1]; N=3): 0.07
Molecule: Strep-His-TEV-HaloTag-3C-human γTuNA (human CDK5RAP2 aa 53–98), wildtype I67D; L70D; L77D

- MT number (EB1 spots) in Xenopus egg extract by TIRF, titration of γTuNA up to 3.6 µM, fold over buffer [3]: 75 fold
Molecule: Strep-His-Xenopus γTuNA, wildtype (domain or fragment)

- percent of γ-tubulin signal lost from the extract after one depletion [4]: > 75%
- percent of purified γTuRCs that retain a γTuNA dimer [5]: 33%
- γTuRC pulled down, percent of wildtype [6]: 67%
- γTuRC pulled down, percent of wildtype [7]: 35%
Molecule: γ-tubulin ring complex (γTuRC), endogenous Xenopus laevis (from UniProt P23330 1-451; Q5U4M5 1-72)

Further lines, the molecule ahead of its results:

Molecule: Strep-His-TEV-HaloTag-3C-Xenopus γTuNA (Xenopus Cdk5rap2 aa 56–101), wildtype F63A
- ratio to parent ([1]; N=2): 0.66

Molecule: Strep-His-TEV-HaloTag-3C-Xenopus γTuNA (Xenopus Cdk5rap2 aa 56–101), wildtype F75A
- ratio to parent ([1]; N=2): 0.08
- response ([1]; N=3, parent: est. 1.06): 0.02

Molecule: Strep-His-TEV-HaloTag-3C-Xenopus γTuNA (Xenopus Cdk5rap2 aa 56–101), wildtype I67D; L70D
- response ([1]; N=3, parent: est. 1.06): 0.01

Molecule: Strep-His-TEV-HaloTag-3C-Xenopus γTuNA (Xenopus Cdk5rap2 aa 56–101), wildtype L77A
- ratio to parent ([1]; N=2): 0.05

Molecule: Strep-His-Xenopus γTuNA I67A (domain or fragment)
- MT number (EB1 spots) in egg extract with 2 µM γTuNA, relative to wildtype γTuNA (% of wildtype) [2]: 50

Molecule: Strep-His-Xenopus γTuNA L70A (domain or fragment)
- MT number (EB1 spots) in egg extract with 2 µM γTuNA, relative to wildtype γTuNA (% of wildtype) [2]: 6

B1: Strep-His-TEV-HaloTag-3C-Xenopus γTuNA F75A (Xenopus F71A) (domain or fragment, Xenopus laevis)
chain: {Strep‑His-TEV-HaloTag-3C}-MKDFEKQIAELKKENANLKLRIYFLEEQVQQKCDNSSEDLYRMNIE
modifications: reading uncertain
notes: γTuNA of Xenopus laevis Cdk5rap2 isoform X1, aa 56–101; it is F71 in Xenopus; also called Halo-Xenopus γTuNA F75A; Xenopus F75A mutant; source: E. coli Rosetta 2 (DE3), purified (Strep-Tactin); not shown: StrepTagII, N-terminal, kept; 6xHis, N-terminal, kept; HaloTag, N-terminal, kept
- binding result [8]: binds

B2: Strep-His-TEV-HaloTag-3C-Xenopus γTuNA (Xenopus Cdk5rap2 aa 56–101), wildtype (domain or fragment, Xenopus laevis)
chain: {Strep‑His-TEV-HaloTag-3C}-MKDFEKQIAELKKENFNLKLRIYFLEEQVQQKCDNSSEDLYRMNIE
modifications: reading uncertain
notes: γTuNA (CM1) domain of Xenopus laevis Cdk5rap2 isoform X1 (905 aa), aa 56–101; TEV and PreScission (3C) cleavage sites lie between the tags and γTuNA; also called Halo-Xenopus γTuNA; Strep-His-Halo-Xenopus γTuNA; source: E. coli Rosetta 2 (DE3), purified (Strep-Tactin); not shown: StrepTagII, N-terminal, kept; 6xHis, N-terminal, kept; HaloTag, N-terminal, kept
- stoichiometry N [8]: 2

B3: Strep-His-TEV-HaloTag-3C-human γTuNA (human CDK5RAP2 aa 53–98), wildtype (domain or fragment)
chain: {Strep‑His-TEV-HaloTag-3C}-SPTRARNMKDFENQITELKKENFNLKLRIYFLEERMQQEFHGPTEH
modifications: reading uncertain
notes: γTuNA (CM1) domain of human CDK5RAP2 isoform A (1893 aa), aa 53–98; TEV and PreScission (3C) cleavage sites lie between the tags and γTuNA; also called Halo-human γTuNA; human wildtype Halo-γTuNA; source: E. coli Rosetta 2 (DE3), purified (Strep-Tactin); not shown: StrepTagII, N-terminal, kept; 6xHis, N-terminal, kept; HaloTag, N-terminal, kept
- stoichiometry N [8]: 2
